The values below come from paper PMC10184318, “The fission yeast cytokinetic ring component Fic1 promotes septum formation” (Biology Open, 2023).

To fix the notation:
B1: Fic1-MBP [S. pombe] / Cyk3-SH3-GST (aa1-66) [S. pombe] (parent complex)
chain 1: MSKNPLGTLVVRIWKAKNLPNKALVGKQSPYCVCRVGEVVKRTQTDKRSGQEPSWNAVLEFNIPSESYHIMKITVFHEGFRKHPHLIGDTVLSFEKAMKEELQSEWYELKNEFQFAGELSVQFKFIPTDPLYFDRASSKPVLQFPYSSVAALTPVPKKPSKPSKPRKKVPVSHPLPPTPPSREEHVSVPRESSLFTYEDDPLPSFPSPYMVDDYYTQDVFVSDNVNDYSYGVQNPTNPRLSVEDYDANHSSLPPVPPPHLILPTASSSQIFH
chain 2: MSIPKQLPCMVRALYAWPGEREGDLKFTEGDLIECLSIGDGKWWIGRHINTNTQGIFPSNFVHCLD

Variants of B1 are the subject of this test. Description: in vitro binding assay (GST pull-down, Coomassie Blue-stained SDS-PAGE, band quantification); parent: 1; read off a plot.
Turning to chain 1 P176A, chain 1 P179A, the response is around 0.19 A.U. As for chain 1 P174A, chain 1 P177A, the figure is around 0.35 A.U.
